# Test results reported in PMC12352893.
# Biological target: purified recombinant cathepsin A (CTSA) (human) (UniProt P10619)
# Sequence (P10619 29-480): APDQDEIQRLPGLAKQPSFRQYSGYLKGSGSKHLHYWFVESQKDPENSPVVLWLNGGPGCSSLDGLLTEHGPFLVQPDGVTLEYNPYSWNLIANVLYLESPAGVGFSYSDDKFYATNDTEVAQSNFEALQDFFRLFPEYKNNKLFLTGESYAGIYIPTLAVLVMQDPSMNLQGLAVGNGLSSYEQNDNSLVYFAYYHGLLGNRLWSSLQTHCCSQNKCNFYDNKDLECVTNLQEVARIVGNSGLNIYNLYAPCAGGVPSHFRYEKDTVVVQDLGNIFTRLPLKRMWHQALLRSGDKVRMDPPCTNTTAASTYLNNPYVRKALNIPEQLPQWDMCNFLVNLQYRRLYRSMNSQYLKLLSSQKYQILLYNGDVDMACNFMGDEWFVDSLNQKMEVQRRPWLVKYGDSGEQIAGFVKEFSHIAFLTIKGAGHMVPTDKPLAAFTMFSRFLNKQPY
substance,measurement,value
purified recombinant NEU1 (from UniProt Q99519 48-415) (enzyme),NEU1 enzymatic activity (moles of substrate/moles of NEU1/sec) of recombinant NEU1 incubated with CTSA; fold reduction by high HS concentrations (≥0.3 mg/mL),100 fold
